Patent US20180171313A1 (NOVOZYMES A S, published 2018)

Biological target: T1, chaperone fusion protein (Chap-MBP): 6x histidine tag, E. coli maltose binding protein, linker and mature G. … (Gallaecimonas pentaromativorans …)
T1 construct: also called LIF
Experiment: lipase refolded with the chaperone fusion protein, examined as the complex by differential scanning calorimetry
Procedure: Sample- and reference-solutions (approx. 0.2 ml) were loaded into the calorimeter (reference: buffer without enzyme) from storage conditions at 10° C. and thermally pre-equilibrated for 20 minutes at 20° C. prior to DSC scan from 20° C. to 100° C. Denaturation temperatures were determined at an accuracy of approximately +/−1° C.
In complex with the chaperone fusion protein, the thermostability of the lipase was high with a Td value in the range of 79.9-94.1° C. In a non-parallel trial under similar experimental conditions the thermostability of Lipolase was measured to have a Td value of 77.0° C.

B1: Gallaecimonas pentaromativorans lipase (lipase of the invention), mature part (enzyme)
chain: SGYTQTKYPIVLVHGLFGFDSLAGVDYWYGIPQALSQDGATVYVVNVSAANSTEVRGEQLLVQIDNILALTGAKKVNLIGHSHGGPTARYAASISPGKVASVTSVGGVNWGSRFADALRGTIAPGSVSESVIGAAANAFSSIIEFLSGTPADPQDSVAALNALTTAGSLAFNASYPEGMPSQYCGQGQMQAANGVYYFSWSGASPLTNVLDVTDAALGLTSLVFGESNDGLVSSCSSHLGKVIRDDYAMNHLDEVNQTFGLVSLFETNPKTLYRNQANRLKNLGL
notes: The forward primer adds an ATG start codon through its NdeI site; also called G. pentaromativorans lipase
binding result: binds
